Data on 17 molecules can be found in patent US20030068675, “Position dependent recognition of GNN nucleotide triplets by zinc fingers” (published 2003).

What all share (assay): EMSA
Details in all cases: tags: MBP fusion
On the technique in general: Mobility shift assays separate free from complexed probe on a gel.

One data set deals with T1, ZFP SBS#1358 (synthetic).
T1 chain: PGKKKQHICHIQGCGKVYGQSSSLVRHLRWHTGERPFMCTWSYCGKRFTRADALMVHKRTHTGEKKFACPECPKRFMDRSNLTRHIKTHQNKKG
An outline of the steps:
(§1)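 Purified ZFP was titrated against labeled double-stranded target (1 nM or lower, at least 10-fold below expected Kd) carrying the natural binding site with flanks. Binding buffer was 10 mM Tris pH 7.5, 100 mM KCl, 1 mM MgCl2, 0.1 mM ZnCl2, 5 mM DTT, 10% glycerol, 0.02% BSA, with equilibration for at least 45 min. Bound and free target were separated on a 10% polyacrylamide gel.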

Another data set has as its target T2, ZFP SBS#1357 (synthetic).
T2 chain: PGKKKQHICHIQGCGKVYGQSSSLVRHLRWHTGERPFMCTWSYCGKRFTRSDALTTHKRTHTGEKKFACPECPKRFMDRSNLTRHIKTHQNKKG
Summed up:
as §1

In the next data set the target is ZFP SBS#1352 (synthetic). An outline of the steps:
as §1

The target in a further data set is ZFP SBS#1330 (synthetic). An outline of the steps: as §1
ZFP SBS#1330 (synthetic), sequence (chain, as listed by the source): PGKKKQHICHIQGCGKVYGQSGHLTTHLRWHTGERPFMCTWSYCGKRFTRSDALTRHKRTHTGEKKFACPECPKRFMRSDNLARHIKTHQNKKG
Another data set addresses T3, ZFP SBS#1344 (synthetic).
T3 chain: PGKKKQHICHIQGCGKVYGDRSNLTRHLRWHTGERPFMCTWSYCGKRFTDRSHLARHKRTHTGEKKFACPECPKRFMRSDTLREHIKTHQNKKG
Summed up:
as §1

Another data set deals with T4, ZFP SBS#1348 (synthetic).
T4 chain: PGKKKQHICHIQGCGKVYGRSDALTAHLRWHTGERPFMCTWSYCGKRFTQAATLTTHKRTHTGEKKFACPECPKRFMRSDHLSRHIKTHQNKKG
An outline of the steps:
as §1

A further data set deals with T5, ZFP SBS#1351 (synthetic).
T5 chain: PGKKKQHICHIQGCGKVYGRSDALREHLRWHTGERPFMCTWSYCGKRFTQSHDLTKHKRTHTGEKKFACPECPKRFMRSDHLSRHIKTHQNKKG
An outline of the steps: as §1

The target in another data set is ZFP SBS#1350 (synthetic). Summed up: as §1
ZFP SBS#1350 (synthetic), sequence (chain, as listed by the source): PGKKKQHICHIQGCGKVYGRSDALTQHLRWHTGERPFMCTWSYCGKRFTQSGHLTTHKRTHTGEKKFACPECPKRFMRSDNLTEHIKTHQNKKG
The target of a further data set is T6, ZFP SBS#1347 (synthetic).
T6 chain: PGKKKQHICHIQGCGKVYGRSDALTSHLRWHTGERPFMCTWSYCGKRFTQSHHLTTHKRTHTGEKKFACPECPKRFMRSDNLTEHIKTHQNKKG
Summed up:
as §1

The next data set has as its target T7, ZFP SBS#1367 (synthetic).
T7 chain: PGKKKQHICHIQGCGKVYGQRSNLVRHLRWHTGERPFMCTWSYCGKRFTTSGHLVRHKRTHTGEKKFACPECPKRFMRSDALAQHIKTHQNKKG
An outline of the steps: as §1

The target of a further data set is T8, ZFP SBS#1364 (synthetic).
T8 chain: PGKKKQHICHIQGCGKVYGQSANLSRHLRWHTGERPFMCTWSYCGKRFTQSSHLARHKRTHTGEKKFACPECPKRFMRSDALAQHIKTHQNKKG
Summed up:
as §1

The target of another data set is T9, ZFP SBS#1366 (synthetic).
T9 chain: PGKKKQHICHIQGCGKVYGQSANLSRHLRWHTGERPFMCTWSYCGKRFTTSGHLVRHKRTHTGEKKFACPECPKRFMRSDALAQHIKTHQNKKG
An outline of the steps:
as §1

For the next data set, the target named is T10, ZFP SBS#1365 (synthetic).
T10 chain: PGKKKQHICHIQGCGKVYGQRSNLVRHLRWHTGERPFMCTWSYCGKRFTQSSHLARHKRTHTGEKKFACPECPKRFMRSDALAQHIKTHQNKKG
An outline of the steps:
as §1

In the next data set the target is ZFP SBS#1362 (synthetic). Summed up: as §1
A further data set addresses T11, ZFP SBS#1363 (synthetic).
T11 chain: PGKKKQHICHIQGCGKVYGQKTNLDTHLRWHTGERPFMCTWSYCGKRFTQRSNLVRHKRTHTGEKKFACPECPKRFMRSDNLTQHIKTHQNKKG
An outline of the steps: as §1

For another data set, the target named is T12, ZFP SBS#1361 (synthetic).
T12 chain: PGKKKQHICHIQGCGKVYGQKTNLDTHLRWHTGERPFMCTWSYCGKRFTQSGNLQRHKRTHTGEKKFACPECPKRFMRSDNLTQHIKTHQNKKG
An outline of the steps: as §1

The next data set concerns the target ZFP SBS#1356 (synthetic). Summed up: as §1
A further data set concerns the target ZFP SBS#1355 (synthetic). An outline of the steps:
as §1

The next data set concerns the target T13, ZFP SBS#1341 (synthetic).
T13 chain: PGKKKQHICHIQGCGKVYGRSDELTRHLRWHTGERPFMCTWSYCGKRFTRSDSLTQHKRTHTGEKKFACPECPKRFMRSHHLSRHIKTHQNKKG
An outline of the steps:
as §1

Another data set has as its target T14, ZFP SBS#1339 (synthetic).
T14 chain: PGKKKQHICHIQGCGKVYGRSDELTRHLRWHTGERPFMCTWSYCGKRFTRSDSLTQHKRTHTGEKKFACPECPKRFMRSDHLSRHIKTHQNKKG
An outline of the steps:
as §1

The target of the next data set is T15, ZFP SBS#1338 (synthetic).
T15 chain: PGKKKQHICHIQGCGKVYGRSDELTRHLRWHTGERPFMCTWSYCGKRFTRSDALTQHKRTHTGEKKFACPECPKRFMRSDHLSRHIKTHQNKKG
An outline of the steps: as §1

In a further data set the target is T16, ZFP SBS#1340 (synthetic).
T16 chain: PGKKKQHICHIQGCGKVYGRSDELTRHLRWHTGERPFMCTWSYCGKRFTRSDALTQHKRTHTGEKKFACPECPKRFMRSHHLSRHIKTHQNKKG
Summed up:
as §1

The target of another data set is T17, ZFP SBS#1336 (synthetic).
T17 chain: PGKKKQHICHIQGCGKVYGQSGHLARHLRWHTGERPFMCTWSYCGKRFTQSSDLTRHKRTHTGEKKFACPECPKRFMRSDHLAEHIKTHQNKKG
An outline of the steps: as §1

In the next data set the target is ZFP SBS#1337 (synthetic). An outline of the steps: as §1
ZFP SBS#1337 (synthetic), sequence (chain, as listed by the source): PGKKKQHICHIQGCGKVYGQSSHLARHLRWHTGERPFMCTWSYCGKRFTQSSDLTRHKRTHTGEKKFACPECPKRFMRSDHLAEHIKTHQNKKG
For another data set, the target named is T18, ZFP SBS#1342 (synthetic).
T18 chain: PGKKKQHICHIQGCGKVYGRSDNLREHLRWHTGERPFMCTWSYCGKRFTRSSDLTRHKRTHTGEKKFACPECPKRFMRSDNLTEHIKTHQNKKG
An outline of the steps:
as §1

The next data set addresses T19, ZFP SBS#1343 (synthetic).
T19 chain: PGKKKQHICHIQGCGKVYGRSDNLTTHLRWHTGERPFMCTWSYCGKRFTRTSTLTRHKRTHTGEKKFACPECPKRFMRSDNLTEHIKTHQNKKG
An outline of the steps:
as §1

For the next data set, the target named is T20, ZFP SBS#1335 (synthetic).
T20 chain: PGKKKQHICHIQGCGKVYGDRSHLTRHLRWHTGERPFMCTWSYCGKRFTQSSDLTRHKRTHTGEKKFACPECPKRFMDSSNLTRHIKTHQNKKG
Summed up:
as §1

For a further data set, the target named is T21, ZFP SBS#1334 (synthetic).
T21 chain: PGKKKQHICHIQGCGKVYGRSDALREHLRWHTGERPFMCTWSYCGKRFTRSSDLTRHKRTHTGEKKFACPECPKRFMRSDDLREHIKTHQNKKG
Summed up:
as §1

A further data set addresses ZFP SBS#1346 (synthetic). Summed up:
as §1

For a further data set, the target named is T22, ZFP SBS#1360 (synthetic).
T22 chain: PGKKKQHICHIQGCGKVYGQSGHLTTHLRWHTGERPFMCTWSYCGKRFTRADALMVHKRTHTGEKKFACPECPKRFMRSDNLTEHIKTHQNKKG
Summed up:
as §1

The target of the next data set is T23, ZFP SBS#1353 (synthetic, UniProt P08047).
T23 chain: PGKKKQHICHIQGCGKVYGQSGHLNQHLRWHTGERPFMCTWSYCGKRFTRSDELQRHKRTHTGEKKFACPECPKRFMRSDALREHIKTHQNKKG
Summed up:
as §1

Another data set addresses T24, ZFP SBS#1354 (synthetic, UniProt P08047).
T24 chain: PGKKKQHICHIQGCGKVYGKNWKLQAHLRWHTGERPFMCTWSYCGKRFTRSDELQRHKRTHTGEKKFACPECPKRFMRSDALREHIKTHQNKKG
An outline of the steps: as §1

ZFP SBS#1355 (synthetic), sequence (chain, as listed by the source): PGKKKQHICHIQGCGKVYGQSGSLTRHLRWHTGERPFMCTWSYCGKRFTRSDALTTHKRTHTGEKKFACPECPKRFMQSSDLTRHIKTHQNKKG
ZFP SBS#1356 (synthetic), sequence (chain, as listed by the source): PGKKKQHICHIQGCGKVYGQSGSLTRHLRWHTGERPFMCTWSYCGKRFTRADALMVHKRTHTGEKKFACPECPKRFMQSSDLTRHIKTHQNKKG
ZFP SBS#1352 (synthetic), sequence (chain, as listed by the source): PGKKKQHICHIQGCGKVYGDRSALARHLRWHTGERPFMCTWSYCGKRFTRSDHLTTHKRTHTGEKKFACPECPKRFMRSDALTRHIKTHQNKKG

B1: GACTTGGTA (dsDNA)
DNA 1: GACTTGGTA
DNA 2: TACCAAGTC
For the molecule B1, the values for the Kd in the data set with ZFP SBS#1358 and with ZFP SBS#1357 were 0.05 nM and 0.032 nM, respectively.

B2: GTGTGGGTC (dsDNA)
DNA 1: GTGTGGGTC
DNA 2: GACCCACAC
In the case of B2, in the data set with ZFP SBS#1352, the Kd was found to be 0.023 nM.

B3: GAGGTGTGA (dsDNA)
DNA 1: GAGGTGTGA
DNA 2: TCACACCTC
In the case of B3, the Kd with ZFP SBS#1330 amounted to 0.175 nM.

B4: CCGGGCGAC (dsDNA)
DNA 1: CCGGGCGAC
DNA 2: GTCGCCCGG
In the data set with ZFP SBS#1344, B4 yielded a Kd of 2.28 nM.

B5: GGGTCACTG (dsDNA)
DNA 1: GGGTCACTG
DNA 2: CAGTGACCC
As for B5, the Kd with ZFP SBS#1348 came out at 2.58 nM; with ZFP SBS#1351, 0.234 nM.

B6: CAGTGAATG (dsDNA)
DNA 1: CAGTGAATG
DNA 2: CATTCACTG
Turning to B6, the dissociation constant (Kd) in the data set with ZFP SBS#1350 was determined as 74.1 nM; with ZFP SBS#1347 it was 8.23 nM.

B7: ATGGGTGAA (dsDNA)
DNA 1: ATGGGTGAA
DNA 2: TTCACCCAT
As to B7, the Kd with ZFP SBS#1367 is 1.03 nM; with ZFP SBS#1364, 1.22 nM; with ZFP SBS#1366 it was 22.6 nM; with ZFP SBS#1365, 0.152 nM.

B8: AAGGAAAAA (dsDNA)
DNA 1: AAGGAAAAA
DNA 2: TTTTTCCTT
In the case of B8, the Kd amounted to 0.332 nM in the data set with ZFP SBS#1362, 74.1 nM in the data set with ZFP SBS#1363 and 0.835 nM in the data set with ZFP SBS#1361.

B9: GCTTTGGCA (dsDNA)
DNA 1: GCTTTGGCA
DNA 2: TGCCAAAGC
As to B9, the Kd in the data set with ZFP SBS#1356 came to 0.034 nM; with ZFP SBS#1355, 0.172 nM.

B10: GGGATGGCG (dsDNA)
DNA 1: GGGATGGCG
DNA 2: CGCCATCCC
For the molecule B10, the Kd with ZFP SBS#1341 was 4.1 nM; with ZFP SBS#1339, 0.569 nM; in the data set with ZFP SBS#1338, 1.04 nM; in the data set with ZFP SBS#1340, 0.751 nM.

B11: CGGGCTGGA (dsDNA)
DNA 1: CGGGCTGGA
DNA 2: TCCAGCCCG
B11: the dissociation constant (Kd) with ZFP SBS#1336 amounted to 1.4 nM; with ZFP SBS#1337 it was 0.235 nM.

B12: CAGGCGCAG (dsDNA)
DNA 1: CAGGCGCAG
DNA 2: CTGCGCCTG
Consider B12, for which the Kd came to 0.68 nM with ZFP SBS#1342 and 37 nM with ZFP SBS#1343.

B13: GACGCTGGC (dsDNA)
DNA 1: GACGCTGGC
DNA 2: GCCAGCGTC
In turn, B13 returned a Kd with ZFP SBS#1335 of 1.4 nM.

B14: CCGGCGCTG (dsDNA)
DNA 1: CCGGCGCTG
DNA 2: CAGCGCCGG
B14 showed a Kd in the data set with ZFP SBS#1334 of 0.31 nM.

B15: GATGTGTGA (dsDNA)
DNA 1: GATGTGTGA
DNA 2: TCACACATC
On to B15, for which binding with ZFP SBS#1346 was characterised by a dissociation constant (Kd) of 0.153 nM.

B16: CAGTTGTGA (dsDNA)
DNA 1: CAGTTGTGA
DNA 2: TCACAACTG
Turning to B16, in the data set with ZFP SBS#1360, binding was put at a Kd of 41.7 nM. That is a double-digit nanomolar value.

B17: CTGGCGAGA (dsDNA)
DNA 1: CTGGCGAGA
DNA 2: TCTCGCCAG
Regarding B17, the equilibrium dissociation constant (Kd) stood at 56.5 nM with ZFP SBS#1353 and 20.9 nM in the data set with ZFP SBS#1354.

Broadly, the Kd is the equilibrium constant for the complex coming apart.
